Target: the molecule itself
Experiment: high-speed atomic force microscopy

B1: PDI I289A (enzyme)
chain: not shown
stoichiometry N: 2
